Experimental findings from US20240247080A1, “GLP1/GIP/NPY2 RECEPTOR TRIPLE AGONISTS” (Boehringer Ingelheim International GmbH, priority 2022, published 2024) are described below.

Test in all cases: cell-based or functional assay
One assay addresses GLP-1 receptor (human (printed as hGLP1R), UniProt P43220 24-463).
A further assay has as its target T1, GIP receptor (human (printed as hGIPR), UniProt P48546 22-466).
T1 sequence (looked up): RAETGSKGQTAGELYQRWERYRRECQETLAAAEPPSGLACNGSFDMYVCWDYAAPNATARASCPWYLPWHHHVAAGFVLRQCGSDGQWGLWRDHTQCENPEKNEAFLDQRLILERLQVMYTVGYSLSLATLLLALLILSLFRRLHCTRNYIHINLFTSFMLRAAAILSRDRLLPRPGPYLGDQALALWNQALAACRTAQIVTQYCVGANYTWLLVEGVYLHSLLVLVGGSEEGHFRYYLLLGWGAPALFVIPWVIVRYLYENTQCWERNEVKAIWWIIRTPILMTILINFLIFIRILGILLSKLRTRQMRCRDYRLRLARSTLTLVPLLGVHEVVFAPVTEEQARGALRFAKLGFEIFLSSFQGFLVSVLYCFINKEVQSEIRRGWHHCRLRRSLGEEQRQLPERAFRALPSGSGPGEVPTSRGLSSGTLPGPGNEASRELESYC

The target in a further assay is T2, NPY2 receptor (human (printed as hNPY2R), UniProt P49146 1-381).
T2 sequence (looked up): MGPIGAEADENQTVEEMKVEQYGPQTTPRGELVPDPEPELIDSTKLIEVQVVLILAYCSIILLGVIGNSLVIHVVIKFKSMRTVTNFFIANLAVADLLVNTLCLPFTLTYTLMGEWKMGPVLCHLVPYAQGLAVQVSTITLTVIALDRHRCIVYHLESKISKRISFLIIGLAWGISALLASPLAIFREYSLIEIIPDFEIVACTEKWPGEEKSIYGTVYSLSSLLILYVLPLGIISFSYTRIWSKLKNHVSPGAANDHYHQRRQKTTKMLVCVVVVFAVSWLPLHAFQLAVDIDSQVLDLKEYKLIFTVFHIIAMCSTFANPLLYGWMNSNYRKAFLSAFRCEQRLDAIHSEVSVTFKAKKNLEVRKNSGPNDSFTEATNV

Substitutions are numbered along the chain they refer to. Starred links: 1 amine or outer side, 2 acyl side, 3 side chain; linkers in the order of their positions; H or OH if unused. Non-standard residues stand in square brackets, D forms with d. Groups on a side chain read outwards from the residue. No end group written: not given here. *: point of attachment. C20 diacid = O=C(O)CCCCCCCCCCCCCCCCCCC(=O)*; γGlu = O=C(O)[C@H](CCC(=O)[*:2])N[*:1]; εLys = N[C@@H](CCCCN[*:1])C(=O)[*:2]; AEEA = NCCOCCOCC(=O)O; Aib = CC(C)(N)C(=O)O

For Y[Aib]EGTFTSDYSI[Aib]LEKQAQ[Aib]AFVQWLIK([εLys-γGlu-γGlu-γGlu-γGlu-γGlu-C20 diacid])GGPSEGASLRHYYNWLTRQRY-NH2 (also: TFA salt) [Compound 242], in the assay with GLP-1 receptor, the “EC50 hGLP1R 0.5% hP (CreLuc)” value came out at 0.13 nM and the “EC50 hGLP1R 100% hP (CreLuc)” value is 4.69 nM. Moreover, in the assay with GIP receptor, the “EC50 hGIPR 0.5% hP (CreLuc)” value is 0.32 nM and the “EC50 hGIPR 100% hP (CreLuc)” value came out at 1.72 nM. In the assay with NPY2 receptor, the “EC50 hNPY2R 0.5% hP (CreLuc)” value worked out at 7.54 nM and the “EC50 hNPY2R 100% hP (CreLuc)” value amounted to 28.8 nM.
Regarding Y[Aib]EGTFTSDYSI[Aib]LEKQAQ[Aib]AFIEWLIK([AEEA-AEEA-γGlu-γGlu-γGlu-γGlu-C20 diacid])GGPSEGASLRHYYNWLTRQRY-NH2 (also: TFA salt) [Compound 231], in the assay with GLP-1 receptor, the “EC50 hGLP1R 0.5% hP (CreLuc)” value was 0.14 nM and the “EC50 hGLP1R 100% hP (CreLuc)” value is 3.28 nM. In the assay with GIP receptor, the “EC50 hGIPR 0.5% hP (CreLuc)” value is 0.33 nM and the “EC50 hGIPR 100% hP (CreLuc)” value is 1.43 nM. Also, in the assay with NPY2 receptor, the “EC50 hNPY2R 0.5% hP (CreLuc)” value was 19.2 nM and the “EC50 hNPY2R 100% hP (CreLuc)” value was determined as 53 nM.
Take Y[Aib]EGTFTSDYSI[Aib]LEKQAQ[Aib]AFVEWLIK([γGlu-γGlu-γGlu-γGlu-γGlu-γGlu-C20 diacid])GGPSSGASLRHYYNWLTRQRY-NH2 (also: TFA salt) [Compound 235]: in the assay with GLP-1 receptor, the “EC50 hGLP1R 0.5% hP (CreLuc)” value turned out to be 0.12 nM and the “EC50 hGLP1R 100% hP (CreLuc)” value was determined as 4.64 nM. In addition, in the assay with GIP receptor, the “EC50 hGIPR 0.5% hP (CreLuc)” value amounted to 0.34 nM and the “EC50 hGIPR 100% hP (CreLuc)” value came out at 2.81 nM. In the assay with NPY2 receptor, the “EC50 hNPY2R 0.5% hP (CreLuc)” value was 13.9 nM and the “EC50 hNPY2R 100% hP (CreLuc)” value is 77.7 nM.

B1: Compound 232 (peptide)
peptide: YXEGTFTSDYSIXLEKQAQXAFVEWLIKGGPSYGASLRHYYNWLTRQRY
modifications: Aib at 2, 13, 20; K28 side chain carries C20DA-gGlu-gGlu-gGlu-gGlu-gGlu-gGlu-eLys; C-terminal amide
On to B1, for which, in the assay with GLP-1 receptor, the “EC50 hGLP1R 0.5% hP (CreLuc)” value stood at 0.21 nM and the “EC50 hGLP1R 100% hP (CreLuc)” value was 4.88 nM. In the assay with GIP receptor, the “EC50 hGIPR 0.5% hP (CreLuc)” value stood at 0.19 nM and the “EC50 hGIPR 100% hP (CreLuc)” value was 1.64 nM. In the assay with NPY2 receptor, the “EC50 hNPY2R 0.5% hP (CreLuc)” value was 15.3 nM and the “EC50 hNPY2R 100% hP (CreLuc)” value turned out to be 36.8 nM.

B2: Compound 236 (peptide)
peptide: B1 peptide with Y33E
modifications: Aib at 2, 13, 20; NMeR (N-methyl-L-arginine) at 48; K28 side chain carries C20DA-gGlu-gGlu-gGlu-gGlu-gGlu-gGlu-eLys; C-terminal amide
Take B2: in the assay with GLP-1 receptor, the “EC50 hGLP1R 0.5% hP (CreLuc)” value was determined as 0.26 nM and the “EC50 hGLP1R 100% hP (CreLuc)” value turned out to be 3.42 nM. Further, in the assay with GIP receptor, the “EC50 hGIPR 0.5% hP (CreLuc)” value was 0.3 nM and the “EC50 hGIPR 100% hP (CreLuc)” value was 1.41 nM. Also, in the assay with NPY2 receptor, the “EC50 hNPY2R 0.5% hP (CreLuc)” value worked out at 31 nM and the “EC50 hNPY2R 100% hP (CreLuc)” value stood at 86.6 nM.

B3: Compound 234 (peptide)
peptide: B1 peptide with Y10L, Y33E
modifications: Aib at 2, 13, 20; K28 side chain carries C20DA-gGlu-gGlu-gGlu-gGlu-Glu-gGlu-eLys (so in the source); C-terminal amide
Take B3: in the assay with GLP-1 receptor, the “EC50 hGLP1R 0.5% hP (CreLuc)” value amounted to 0.35 nM and the “EC50 hGLP1R 100% hP (CreLuc)” value amounted to 2.66 nM. Moreover, in the assay with GIP receptor, the “EC50 hGIPR 0.5% hP (CreLuc)” value amounted to 0.74 nM and the “EC50 hGIPR 100% hP (CreLuc)” value is 3.27 nM. In the assay with NPY2 receptor, the “EC50 hNPY2R 0.5% hP (CreLuc)” value came out at 25.1 nM and the “EC50 hNPY2R 100% hP (CreLuc)” value is 48.1 nM.

B4: Compound 241 (peptide)
peptide: B1 peptide with Y33E, A35V
modifications: Aib at 2, 13, 20; K28 side chain carries C20DA-gGlu-gGlu-gGlu-gGlu-gGlu-gGlu-eLys; C-terminal amide
For the molecule B4, in the assay with GLP-1 receptor, the “EC50 hGLP1R 0.5% hP (CreLuc)” value was 0.77 nM and the “EC50 hGLP1R 100% hP (CreLuc)” value was determined as 9.65 nM. For the same molecule, in the assay with GIP receptor, the “EC50 hGIPR 0.5% hP (CreLuc)” value turned out to be 0.69 nM and the “EC50 hGIPR 100% hP (CreLuc)” value worked out at 4.36 nM. For the same molecule, in the assay with NPY2 receptor, the “EC50 hNPY2R 0.5% hP (CreLuc)” value was found to be 16.6 nM and the “EC50 hNPY2R 100% hP (CreLuc)” value worked out at 34.1 nM.

B5: Compound 244 (peptide)
peptide: B1 peptide with Y33T
modifications: Aib at 2, 13, 20; K28 side chain carries C20DA-gGlu-gGlu-gGlu-gGlu-gGlu-gGlu-eLys; C-terminal amide
As to B5, in the assay with GLP-1 receptor, the “EC50 hGLP1R 0.5% hP (CreLuc)” value is 0.19 nM and the “EC50 hGLP1R 100% hP (CreLuc)” value turned out to be 5.98 nM. Moreover, in the assay with GIP receptor, the “EC50 hGIPR 0.5% hP (CreLuc)” value was 0.32 nM and the “EC50 hGIPR 100% hP (CreLuc)” value amounted to 2.32 nM. Also, in the assay with NPY2 receptor, the “EC50 hNPY2R 0.5% hP (CreLuc)” value is 13.5 nM and the “EC50 hNPY2R 100% hP (CreLuc)” value was found to be 58.3 nM.
